T1: RHPN1, Q8TCX5
T1 sequence (Q8TCX5 508-602, limits assumed, looked up): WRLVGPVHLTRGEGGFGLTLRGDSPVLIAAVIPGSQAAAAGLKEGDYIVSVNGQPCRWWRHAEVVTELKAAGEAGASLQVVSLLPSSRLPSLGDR

T2: MPP7, Q5T2T1
T2 sequence (Q5T2T1 134-230, limits assumed, looked up): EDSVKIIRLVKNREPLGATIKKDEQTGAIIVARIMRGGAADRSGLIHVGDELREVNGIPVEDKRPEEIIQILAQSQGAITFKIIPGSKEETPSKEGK

T3: MPDZ_5, O75970
T3 sequence (O75970 695-796, limits assumed, looked up): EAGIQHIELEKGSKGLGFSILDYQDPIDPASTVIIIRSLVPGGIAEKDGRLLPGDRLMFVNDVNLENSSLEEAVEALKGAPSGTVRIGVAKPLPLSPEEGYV

T4: MPDZ_10, O75970
T4 sequence (O75970 1624-1722, limits assumed, looked up): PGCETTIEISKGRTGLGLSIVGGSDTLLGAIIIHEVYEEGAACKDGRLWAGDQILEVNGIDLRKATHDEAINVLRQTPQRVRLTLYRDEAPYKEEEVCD

T5: LRRC7, Q96NW7
T5 sequence (Q96NW7 1440-1537, limits assumed, looked up): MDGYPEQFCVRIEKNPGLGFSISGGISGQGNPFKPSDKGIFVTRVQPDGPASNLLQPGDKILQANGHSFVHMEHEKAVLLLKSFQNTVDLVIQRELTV

T6: PDZRN3_1, Q9UPQ7
T6 sequence (Q9UPQ7 244-349, limits assumed, looked up): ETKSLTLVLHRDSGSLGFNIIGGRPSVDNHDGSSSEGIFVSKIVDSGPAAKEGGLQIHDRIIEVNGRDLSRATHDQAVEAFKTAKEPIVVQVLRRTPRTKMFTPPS

T7: ARHGAP21, Q5T5U3
T7 sequence (Q5T5U3 45-169, limits assumed, looked up): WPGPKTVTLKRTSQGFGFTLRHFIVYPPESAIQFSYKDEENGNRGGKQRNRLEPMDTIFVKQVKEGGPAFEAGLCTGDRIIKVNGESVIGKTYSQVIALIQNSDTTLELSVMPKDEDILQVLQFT

T8: HTRA3, P83110
T8 sequence (P83110 354-453, limits assumed, looked up): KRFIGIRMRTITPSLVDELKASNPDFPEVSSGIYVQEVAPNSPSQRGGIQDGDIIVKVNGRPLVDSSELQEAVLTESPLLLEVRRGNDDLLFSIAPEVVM

T9: FRMPD1, Q5SYB0
T9 sequence (Q5SYB0 52-145, limits assumed, looked up): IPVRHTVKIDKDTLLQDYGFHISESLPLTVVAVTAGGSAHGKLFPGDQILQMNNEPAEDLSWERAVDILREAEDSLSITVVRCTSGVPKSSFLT

T10: DFNB31_2, Q9P202
T10 sequence (Q9P202 274-371, limits assumed, looked up): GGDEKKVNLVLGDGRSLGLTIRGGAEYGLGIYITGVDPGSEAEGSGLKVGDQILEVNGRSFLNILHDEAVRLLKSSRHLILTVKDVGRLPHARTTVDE

T11: SNTB1, Q13884
T11 sequence (Q13884 107-205, limits assumed, looked up): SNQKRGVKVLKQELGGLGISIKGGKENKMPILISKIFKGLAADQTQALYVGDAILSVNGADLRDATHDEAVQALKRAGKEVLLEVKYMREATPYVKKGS


Legend:
Assay in all cases: holdup assay
Parameters in all cases: key: below the threshold = too weak to quantify, mostly under pKd 3.1 to 4
Conditions in all cases: plain residues with an end cap or a label only (N-terminal biotin on a linker: ado-ado)
RHPN1, Q8TCX5 = biological target: T1, RHPN1, Q8TCX5
MPP7, Q5T2T1 = biological target: T2, MPP7, Q5T2T1
MPDZ_5, O75970 = biological target: T3, MPDZ_5, O75970
Inadl_3, Q8NI35 = biological target: Inadl_3, Q8NI35
Inadl_1, Q8NI35 = biological target: Inadl_1, Q8NI35
GRIP2_6, Q9C0E4 = biological target: GRIP2_6, Q9C0E4
MPDZ_10, O75970 = biological target: T4, MPDZ_10, O75970
NHERF4_1, Q86UT5-2 = biological target: NHERF4_1, Q86UT5-2
LRRC7, Q96NW7 = biological target: T5, LRRC7, Q96NW7
GORASP2, Q9H8Y8 = biological target: GORASP2, Q9H8Y8
PDZRN3_1, Q9UPQ7 = biological target: T6, PDZRN3_1, Q9UPQ7
GORASP1, Q9BQQ3 = biological target: GORASP1, Q9BQQ3
ARHGAP21, Q5T5U3 = biological target: T7, ARHGAP21, Q5T5U3
HTRA3, P83110 = biological target: T8, HTRA3, P83110
SCRIB_1, Q14160 = biological target: SCRIB_1, Q14160
TJP1_2, Q07157 = biological target: TJP1_2, Q07157
FRMPD1, Q5SYB0 = biological target: T9, FRMPD1, Q5SYB0
FRMPD2_2, Q68DX3 = biological target: FRMPD2_2, Q68DX3
DFNB31_2, Q9P202 = biological target: T10, DFNB31_2, Q9P202
DLG2_3, Q15700 = biological target: DLG2_3, Q15700
PDLIM1, O00151 = biological target: PDLIM1, O00151
SCRIB_3, Q14160 = biological target: SCRIB_3, Q14160
Inadl_4, Q8NI35 = biological target: Inadl_4, Q8NI35
DLG4_1, P78352 = biological target: DLG4_1, P78352
IL16_1, Q14005 = biological target: IL16_1, Q14005
SNTB1, Q13884 = biological target: T11, SNTB1, Q13884
NHERF4_4, Q86UT5 = biological target: NHERF4_4, Q86UT5
NHERF4_4, Q86UT5, sequence (Q86UT5 464-550): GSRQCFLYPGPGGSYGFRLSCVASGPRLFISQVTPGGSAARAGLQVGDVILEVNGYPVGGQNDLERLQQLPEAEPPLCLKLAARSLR

IL16_1, Q14005, sequence (Q14005 210-306): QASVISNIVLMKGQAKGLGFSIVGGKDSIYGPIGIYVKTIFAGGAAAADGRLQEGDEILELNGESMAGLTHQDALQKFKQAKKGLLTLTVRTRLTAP
Inadl_4, Q8NI35, sequence (Q8NI35 547-651): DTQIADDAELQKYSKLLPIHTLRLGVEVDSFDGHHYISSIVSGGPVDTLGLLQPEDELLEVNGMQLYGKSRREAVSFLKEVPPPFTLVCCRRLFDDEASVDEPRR
DLG4_1, P78352, sequence (P78352 62-152): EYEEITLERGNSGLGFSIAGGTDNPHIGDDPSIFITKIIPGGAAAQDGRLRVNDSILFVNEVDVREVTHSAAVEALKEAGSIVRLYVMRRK
GRIP2_6, Q9C0E4, sequence (Q9C0E4 648-740): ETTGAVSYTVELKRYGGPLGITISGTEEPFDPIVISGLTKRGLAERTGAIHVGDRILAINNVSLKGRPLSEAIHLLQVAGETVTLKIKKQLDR
SCRIB_1, Q14160, sequence (Q14160 718-814): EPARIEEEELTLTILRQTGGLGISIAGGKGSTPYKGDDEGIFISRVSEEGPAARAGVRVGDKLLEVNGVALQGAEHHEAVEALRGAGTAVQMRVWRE
Inadl_3, Q8NI35, sequence (Q8NI35 359-469): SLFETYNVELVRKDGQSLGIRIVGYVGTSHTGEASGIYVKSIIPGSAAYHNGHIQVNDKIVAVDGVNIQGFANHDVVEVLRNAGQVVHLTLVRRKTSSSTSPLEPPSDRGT
SCRIB_3, Q14160, sequence (Q14160 999-1103): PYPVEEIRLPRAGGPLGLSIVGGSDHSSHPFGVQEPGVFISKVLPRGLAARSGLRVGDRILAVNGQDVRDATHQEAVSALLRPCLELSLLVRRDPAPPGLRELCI
Inadl_1, Q8NI35, sequence (Q8NI35 113-229): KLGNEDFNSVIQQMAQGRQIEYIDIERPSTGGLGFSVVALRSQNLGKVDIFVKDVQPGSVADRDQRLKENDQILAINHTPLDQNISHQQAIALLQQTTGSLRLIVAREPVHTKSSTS
PDLIM1, O00151, sequence (O00151 1-87): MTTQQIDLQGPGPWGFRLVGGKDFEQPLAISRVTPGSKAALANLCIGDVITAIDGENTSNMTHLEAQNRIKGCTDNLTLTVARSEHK
FRMPD2_2, Q68DX3, sequence (Q68DX3 944-1038): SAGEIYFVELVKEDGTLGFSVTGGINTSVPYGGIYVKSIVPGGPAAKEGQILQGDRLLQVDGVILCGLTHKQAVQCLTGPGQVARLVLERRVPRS
NHERF4_1, Q86UT5-2, sequence (Q86UT5 other isoform, or with tags, fused parts or gaps): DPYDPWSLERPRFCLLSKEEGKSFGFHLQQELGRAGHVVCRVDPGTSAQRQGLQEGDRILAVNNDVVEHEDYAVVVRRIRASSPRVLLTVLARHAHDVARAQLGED
GORASP1, Q9BQQ3, sequence (Q9BQQ3 1-208): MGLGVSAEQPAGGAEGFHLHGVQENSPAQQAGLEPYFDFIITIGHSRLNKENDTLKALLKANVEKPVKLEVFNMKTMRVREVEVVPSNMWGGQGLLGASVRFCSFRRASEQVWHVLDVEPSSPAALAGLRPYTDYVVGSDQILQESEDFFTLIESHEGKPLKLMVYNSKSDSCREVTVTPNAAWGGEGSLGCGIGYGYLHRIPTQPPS
TJP1_2, Q07157, sequence (Q07157 181-274): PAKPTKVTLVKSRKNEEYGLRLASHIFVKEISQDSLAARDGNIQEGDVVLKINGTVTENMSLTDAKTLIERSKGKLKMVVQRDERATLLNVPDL

Binder	pKd (RHPN1, Q8TCX5)	pKd (MPP7, Q5T2T1)	pKd (MPDZ_5, O75970)	pKd (Inadl_3, Q8NI35)	pKd (Inadl_1, Q8NI35)	pKd (GRIP2_6, Q9C0E4)	pKd (MPDZ_10, O75970)	pKd (NHERF4_1, Q86UT5-2)	pKd (LRRC7, Q96NW7)	pKd (GORASP2, Q9H8Y8)	pKd (PDZRN3_1, Q9UPQ7)	pKd (GORASP1, Q9BQQ3)	pKd (ARHGAP21, Q5T5U3)	pKd (HTRA3, P83110)	pKd (SCRIB_1, Q14160)	pKd (TJP1_2, Q07157)	pKd (FRMPD1, Q5SYB0)	pKd (FRMPD2_2, Q68DX3)	pKd (DFNB31_2, Q9P202)	pKd (DLG2_3, Q15700)	further results
RGKNRRQSIF [CDK18, Q07002]	3.58	below the threshold	below the threshold	below the threshold	below the threshold	below the threshold	3.48	3.87	below the threshold	3.87	below the threshold	below the threshold	below the threshold	below the threshold	below the threshold	below the threshold	below the threshold	below the threshold	below the threshold	4.11	pKd (PDLIM1, O00151): below the threshold; pKd (SCRIB_3, Q14160): 3.65; pKd (Inadl_4, Q8NI35): below the threshold; pKd (DLG4_1, P78352): below the threshold; pKd (IL16_1, Q14005): below the threshold; pKd (SNTB1, Q13884): below the threshold; pKd (NHERF4_4, Q86UT5): below the threshold
PSVYSRSQYV [CLDN8, P56748]	below the threshold	below the threshold	4.18	below the threshold	below the threshold	3.48	below the threshold	4.03	below the threshold	4.88	below the threshold	4.55	4.12	4.72	below the threshold	below the threshold	below the threshold	below the threshold	below the threshold	below the threshold	pKd (PDLIM1, O00151): below the threshold; pKd (SCRIB_3, Q14160): below the threshold; pKd (Inadl_4, Q8NI35): below the threshold; pKd (DLG4_1, P78352): below the threshold; pKd (IL16_1, Q14005): below the threshold; pKd (SNTB1, Q13884): below the threshold; pKd (NHERF4_4, Q86UT5): below the threshold
NKSEPFLTWL [WWTR1, Q9GZV5]	4.64	3.8	below the threshold	4.35	4.52	below the threshold	below the threshold	4.46	4.31	4.9	3.76	5	4.88	5.43	4.63	below the threshold	below the threshold	4.29	below the threshold	below the threshold	pKd (PDLIM1, O00151): 4.13; pKd (SCRIB_3, Q14160): 5.14; pKd (Inadl_4, Q8NI35): below the threshold; pKd (DLG4_1, P78352): 3.49; pKd (IL16_1, Q14005): below the threshold; pKd (SNTB1, Q13884): 3.79; pKd (NHERF4_4, Q86UT5): 4.21
QLGSPTADLA [SIPA1, Q96FS4]	below the threshold	below the threshold	below the threshold	below the threshold	below the threshold	below the threshold	below the threshold	below the threshold	below the threshold	below the threshold	below the threshold	below the threshold	below the threshold	below the threshold	below the threshold	below the threshold	below the threshold	below the threshold	below the threshold	3.57	pKd (PDLIM1, O00151): below the threshold; pKd (SCRIB_3, Q14160): below the threshold; pKd (Inadl_4, Q8NI35): below the threshold; pKd (DLG4_1, P78352): below the threshold; pKd (IL16_1, Q14005): below the threshold; pKd (SNTB1, Q13884): below the threshold; pKd (NHERF4_4, Q86UT5): below the threshold
GDSSRKEYFI [GYPC, P04921]	below the threshold	5.18	4.66	4.2	4.12	4.67	below the threshold	below the threshold	below the threshold	4.61	below the threshold	4.33	below the threshold	4.64	below the threshold	below the threshold	below the threshold	below the threshold	below the threshold	3.84	pKd (PDLIM1, O00151): below the threshold; pKd (SCRIB_3, Q14160): 4.13; pKd (Inadl_4, Q8NI35): below the threshold; pKd (DLG4_1, P78352): below the threshold; pKd (IL16_1, Q14005): below the threshold; pKd (SNTB1, Q13884): below the threshold; pKd (NHERF4_4, Q86UT5): below the threshold

Reference: article PMC9482650, “Quantitative fragmentomics allow affinity mapping of interactomes” (Nature Communications, 2022)
